# T1: ksORF57 68-178 (Kaposi's sarcoma-associated herpesvirus …, UniProt Q2HR75 68-178)
# T1 sequence: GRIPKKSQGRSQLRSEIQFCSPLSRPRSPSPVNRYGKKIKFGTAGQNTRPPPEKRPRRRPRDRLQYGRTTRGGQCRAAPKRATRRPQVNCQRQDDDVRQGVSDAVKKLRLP
# T2: ksORF57Δ153 (Kaposi's sarcoma-associated herpesvirus …, UniProt Q2HR75 153-455)
# T2 sequence: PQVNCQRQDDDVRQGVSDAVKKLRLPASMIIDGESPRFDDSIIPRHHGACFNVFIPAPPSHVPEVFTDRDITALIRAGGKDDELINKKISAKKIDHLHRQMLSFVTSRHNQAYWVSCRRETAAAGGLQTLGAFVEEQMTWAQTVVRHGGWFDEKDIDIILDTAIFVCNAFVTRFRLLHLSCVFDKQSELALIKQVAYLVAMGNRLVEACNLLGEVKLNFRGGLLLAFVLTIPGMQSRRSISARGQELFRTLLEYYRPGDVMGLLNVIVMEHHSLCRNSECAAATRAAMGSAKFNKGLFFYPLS
# T3: UL69 200-540 (HCMV, UniProt P16749 200-540)
# T3 sequence: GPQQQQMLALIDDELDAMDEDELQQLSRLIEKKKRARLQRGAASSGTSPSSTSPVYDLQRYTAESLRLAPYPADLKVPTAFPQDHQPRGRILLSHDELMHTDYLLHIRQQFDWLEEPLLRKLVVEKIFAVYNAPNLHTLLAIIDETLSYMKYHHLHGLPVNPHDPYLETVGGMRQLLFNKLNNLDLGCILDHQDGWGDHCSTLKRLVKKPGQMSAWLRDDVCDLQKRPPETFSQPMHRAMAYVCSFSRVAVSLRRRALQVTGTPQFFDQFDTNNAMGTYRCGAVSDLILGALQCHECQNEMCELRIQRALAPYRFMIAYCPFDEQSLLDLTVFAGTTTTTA
# Legend:
# ksORF57 68-178 = molecular target: T1, ksORF57 68-178; assay: NMR HSQC; equimolar, 50 uM protein; substantial broadening; SPR: 20 mM HEPES, 250 mM NaCl, 0.05% Tween-20, pH 7.4, 25 C, protein up to 1 uM; NMR: 20 mM Na phosphate, 50 mM NaCl, 50 mM L-Arg, 50 mM L-Glu, 1 mM EDTA, 2 mM; conditions: protein: recombinant; tags: His-tag (purification), 15N labelled
# hvsORF57Δ146 [1] = molecular target: T4, hvsORF57Δ146 (herpesvirus saimiri (HVS), UniProt P13199 146-417); assay: SPR; SPR: 20 mM HEPES, 250 mM NaCl, 0.05% Tween-20, pH 7.4, 25 C, protein up to 1 uM; NMR: 20 mM Na phosphate, 50 mM NaCl, 50 mM L-Arg, 50 mM L-Glu, 1 mM EDTA, 2 mM; conditions: protein: recombinant; tags: thioredoxin/Strep tag cleaved by HRV3C; residue 145 is cloning Gly; chain copies: 2; label: 5'-biotin
# ksORF57Δ153 = molecular target: T2, ksORF57Δ153; assay: as above; conditions: protein: recombinant; tags: thioredoxin/Strep tag cleaved by HRV3C; chain copies: 2; label: 5'-biotin
# UL69 200-540 = molecular target: T3, UL69 200-540; assay: as above; conditions: protein: recombinant; tags: Strep-tag (purification); chain copies: 4; label: 5'-biotin
# ICP27Δ241 = ICP27Δ241 (HSV-1, UniProt P10238 241-512); assay: as above; conditions: protein: recombinant; tags: Strep-tag (purification); label: 5'-biotin
# [2] = molecular target: the molecule itself; assay: SEC-MALS; 0.5 ml at 1 mg/ml on Superdex 200 10/300GL, gel filtration buffer (20 mM HEPES, 150 mM NaCl, 50 mM L-Arg, 50 mM L-Glu, 1 mM TCEP, pH 7.4); homo-dimer
# hvsORF57Δ146 [3] = molecular target: T4, hvsORF57Δ146; assay: X-ray crystallography; same U-bend interaction as PAN17; data not shown; SPR: 20 mM HEPES, 250 mM NaCl, 0.05% Tween-20, pH 7.4, 25 C, protein up to 1 uM; NMR: 20 mM Na phosphate, 50 mM NaCl, 50 mM L-Arg, 50 mM L-Glu, 1 mM EDTA, 2 mM; conditions: protein: recombinant; tags: thioredoxin/Strep tag cleaved by HRV3C; residue 145 is cloning Gly; chain copies: 2
# hvsORF57Δ146 [4] = molecular target: T4, hvsORF57Δ146; assay: X-ray crystallography; Zn2+ in protein; Mg2+/Ca2+ in crystallization; SPR: 20 mM HEPES, 250 mM NaCl, 0.05% Tween-20, pH 7.4, 25 C, protein up to 1 uM; NMR: 20 mM Na phosphate, 50 mM NaCl, 50 mM L-Arg, 50 mM L-Glu, 1 mM EDTA, 2 mM; conditions: protein: recombinant; tags: thioredoxin/Strep tag cleaved by HRV3C; residue 145 is cloning Gly; chain copies: 2
binder,measurement,setting,value
CAGUCGCGAAGAGG (ssRNA) [14merS],binding result,ksORF57 68-178,binds
CACCUAUGGAUUUUGUG (ssRNA) [PAN17 (5'-biotin)],binding result,hvsORF57Δ146 [1],binds
same,binding result,ksORF57Δ153,binds
same,binding result,UL69 200-540,binds
same,binding result,ICP27Δ241,no binding
CCGUCCCCGCCGCU (ssRNA) [14mer1 (5'-biotin)],binding result,hvsORF57Δ146 [1],no binding
same,binding result,ksORF57Δ153,no binding
same,binding result,UL69 200-540,binds
same,binding result,ICP27Δ241,no binding
"HVS ORF57 residues 146–417 (hvsORF57Δ146) (domain or fragment, ORF57 (ICP27 homolog) of herpesvirus saimiri (HVS), residues 146-417, the C-terminal ICP27-homology domain; Selenomethionine-derivatised protein was used for crystals of the free form; native protein for the RNA complex and SEC-MALS; also called C-terminal IHD of hvsORF57; C-terminal ICP27-homology domain of HVS ORF57; source: E. coli T7 express LysY, purified (StrepTrap HP, HRV3C cleavage, …)) PLLKLFDISILPKSGEPKLFLPVPSLPCQEAEKTNDKYVLAMAQRAMHDVPISSKQLTANLLPVKFKPLLSIVRYTPNYYYWVSMRKETIASANLCTVAAFLDESLCWGQQYLKNDFIFSENGKDIILDTSSALLSQLVHKIKMLPFCHCLMQTTPQDHIVKQVCYLIASNNRILDAVRYLQTSVIKSPIVLLLAYAVCLPAAIICTKNETQLYSHCMRILKEYRPGDVMNILHESLTQHLNKCPSSTCAYTTRAIVGTKANTTGLFFLPTQ",stoichiometry N,[2],2
"KSHV ORF57 residues 153–455 (ksORF57Δ153) (domain or fragment, ORF57/Mta (ICP27 homolog) of Kaposi's sarcoma-associated herpesvirus (KSHV), residues 153-455, the C-terminal ICP27-homology domain; also called C-terminal IHD of ksORF57; source: E. coli T7 express LysY, purified (StrepTrap HP, HRV3C cleavage, Superdex 75); not shown: thioredoxin, N-terminal, cleaved) PQVNCQRQDDDVRQGVSDAVKKLRLPASMIIDGESPRFDDSIIPRHHGACFNVFIPAPPSHVPEVFTDRDITALIRAGGKDDELINKKISAKKIDHLHRQMLSFVTSRHNQAYWVSCRRETAAAGGLQTLGAFVEEQMTWAQTVVRHGGWFDEKDIDIILDTAIFVCNAFVTRFRLLHLSCVFDKQSELALIKQVAYLVAMGNRLVEACNLLGEVKLNFRGGLLLAFVLTIPGMQSRRSISARGQELFRTLLEYYRPGDVMGLLNVIVMEHHSLCRNSECAAATRAAMGSAKFNKGLFFYPLS",stoichiometry N,[2],2
GAUUUUGU (ssRNA) [PAN 42-49],binding result,hvsORF57Δ146 [3],binds
CACCUAUGGAUUUUGUG (ssRNA) [PAN17 (crystal)],binding result,hvsORF57Δ146 [4],binds
CAGUCGCGAAGAGG (ssRNA) [14merS (5'-biotin)],binding result,UL69 200-540,binds
same,binding result,ICP27Δ241,no binding

# — publication PMC6393246, “Structural identification of conserved RNA binding sites in herpesvirus ORF57 homologs: implications for PAN RNA recognition” (Nucleic Acids Research, 2018)
